Measured values taken from US20180016312A1 (Pieris, published 2018).

What was measured:
[1] = target: T1, human angiopoietin-2 (human, UniProt O15123 19-496, limits assumed); experiment: SPR Biacore T200; biotinylated mutein captured, hAng-2 analyte, 1:1 model, 25 C
T1 construct: Bought recombinant protein with a His tag (detected by anti-HIS-tag antibody); also called human Ang-2; hAng-2
T1 sequence (looked up): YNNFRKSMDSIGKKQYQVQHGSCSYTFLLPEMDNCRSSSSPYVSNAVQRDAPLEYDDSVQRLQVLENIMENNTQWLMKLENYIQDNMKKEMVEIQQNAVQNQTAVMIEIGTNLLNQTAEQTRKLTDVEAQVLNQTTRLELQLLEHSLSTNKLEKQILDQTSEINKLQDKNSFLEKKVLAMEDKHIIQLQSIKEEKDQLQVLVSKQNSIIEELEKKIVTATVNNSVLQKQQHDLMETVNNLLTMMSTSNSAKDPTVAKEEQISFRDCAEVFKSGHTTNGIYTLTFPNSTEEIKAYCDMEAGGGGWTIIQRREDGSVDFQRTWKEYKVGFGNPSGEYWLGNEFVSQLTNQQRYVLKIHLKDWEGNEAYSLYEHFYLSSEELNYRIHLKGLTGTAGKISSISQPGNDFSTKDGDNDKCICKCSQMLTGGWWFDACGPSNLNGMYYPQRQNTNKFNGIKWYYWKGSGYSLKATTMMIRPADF
Protocol: In the SPR affinity assay, biotinylated muteins and negative control were captured on a sensor chip CAP using the Biotin CAPture Kit (GE Healthcare): Sensor Chip CAP is pre-immobilized with an ssDNA oligo. Undiluted Biotin CAPture Reagent (streptavidin conjugated with the complementary ss-DNA oligo) was applied at a flow rate of 2 μl/min for 300 s. Subsequently, 0.02 μg/mL of biotinylated muteins or negative control were applied for 300 s at a flow rate of 5 μl/min. […] The reference channel was loaded with Biotin CAPture Reagent only.
Applying a flow rate of 30 μL/min, a multi cycle kinetics approach was used with a sample contact time of 180 s and a dissociation time of 4600 s. All measurements were performed at 25° C. […] Data were evaluated with Biacore T200 Evaluation software (V 1.0). Double referencing was used. A 1:1 Binding model was used to fit the raw data even though the analyte was known to be a multimer.

[2] = target: T1, human angiopoietin-2; experiment: competition cell ECL; hAng-2 pre-incubated with binder, free Ang-2 captured on HEK:hTie-2 cells (competitor)
Protocol: (§1) All incubation steps were performed at room temperature, and the plate was washed after each incubation step with 80 μl PBS buffer for two times using a Biotek EL405 select CW washer (Biotek). In the first step, a 384 well plate was precoated for 5 minutes with poly D lysine and washed twice with PBS. 10⁴ HEK:hTie-2 cells per well were seeded and allowed to adhere to the surface of the wells overnight at 37° C. . After washing, cell coated wells were blocked with 60 μl PBS/Casein (2% Casein in PBS) for 1 h at room temperature.
(§2) After washing, 35 μl surfactant-free reading buffer was added to each well and the ECL signal of every well was read using a Mesoscale Discovery reader.

[3] = target: T2, mouse angiopoietin-2 (mouse, UniProt O35608 19-496, limits assumed); experiment: competition cell ECL; mAng-2 pre-incubated with binder, free Ang-2 captured on HEK:hTie-2 cells (competitor)
T2 construct: Bought recombinant protein; also called mouse Ang-2; mAng-2
T2 sequence (looked up): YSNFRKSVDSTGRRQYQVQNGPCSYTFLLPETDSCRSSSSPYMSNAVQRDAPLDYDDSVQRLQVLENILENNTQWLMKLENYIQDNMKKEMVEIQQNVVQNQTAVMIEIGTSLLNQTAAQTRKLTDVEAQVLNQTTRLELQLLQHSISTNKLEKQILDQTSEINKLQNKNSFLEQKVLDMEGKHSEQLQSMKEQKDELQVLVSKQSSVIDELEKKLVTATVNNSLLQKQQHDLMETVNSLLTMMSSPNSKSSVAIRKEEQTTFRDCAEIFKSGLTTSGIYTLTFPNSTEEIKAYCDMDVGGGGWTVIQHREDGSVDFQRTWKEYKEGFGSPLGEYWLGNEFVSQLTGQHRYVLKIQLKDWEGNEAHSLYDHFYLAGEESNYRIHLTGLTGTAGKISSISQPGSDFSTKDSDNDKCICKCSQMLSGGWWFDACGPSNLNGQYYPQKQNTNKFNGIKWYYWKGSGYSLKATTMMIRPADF
Protocol: as §1, §2

[4] = target: T1, human angiopoietin-2; experiment: competition ELISA; 0.5 nM hAng-2 pre-incubated with binder, free hAng-2 captured on hTie-2 Fc (competitor)
Protocol: All incubation steps were performed with shaking at 300 rpm, and the plate was washed after each incubation step with 80 μl PBS-T buffer (PBS, 0.05% Tween 20) for five times using a Biotek EL405 select CW washer (Biotek). In the first step, a 384 well plate was directly coated with 20 μl of soluble human hTie-2 Fc (Reliatech) at a concentration of […] in PBS over night at 4 ° C. After washing, h Tie-2 Fc coated wells were blocked with 60 μl PBS-T/BSA (2% BSA in PBS containing 0.1% Tween 20) for 1 h at room temperature.
Curve fitting was performed using GraphPad Prism 4 software.

[5] = target: T1, human angiopoietin-2; experiment: cell-based or functional assay
[6] = target: T1, human angiopoietin-2; experiment: ELISA; Ang-2 coated, mutein detected by anti-Streptag-HRP
Protocol: Binding of muteins was tested by a sandwich ELISA assay.
20 μl of serially diluted muteins were incubated in PBS-T/BSA for 1h at room temperature (RT).
The residual supernatants were discarded and 20 μl HRP-labeled anti-Streptag antibody was added at a predetermined optimal concentration in PBS-T/BSA and incubated for 1 h at RT. After washing, 20 μl fluorogenic HRP substrate (QuantaBlu, Thermo) was added to each well, and the reaction was allowed to proceed for 15 to 60 minutes. The fluorescence intensity of every well on the plate was read using a fluorescence microplate reader (Tecan or Molecular Devices). Curve fitting was performed using GraphPad Prism 4 software.

B1: hNGAL lipocalin mutein SEQ ID NO: 9 (designed binder)
chain: QDSTSDLIPAPPLSKVPLQQNFQDNQFHGKWYVVGHAGNYILREDKDPGKMWATIYELKEDKSYDVTEVSFGPKKCNYRIWTFVPGSQPGEFTLGGIKSPPGGTSTLVRVVSTNYNQHAMVFFKHVLQNREFFEITLYGRTKELTSELKENFIRFSKSLGLPENHIVFPVPIDQCIDGSAWSHPQFEK
notes: Mutein of mature hNGAL; Biotinylated with NHS-PEG4-Biotin for the SPR assay
For B1, the Kd [1] was 0.29 nM, the koff [1] was 9.4e-05 s⁻¹ and the IC50 [2] was 3.82 nM. The IC50 [3] was 1.39 nM, the IC50 [4] was 0.0929 nM and the “IC50 mean, LEC proliferation assay (CellTiter-Glo)” value (shortened to “IC50 mean, LEC proliferation assay”) [5] was 0.142 nM. The EC50 [6] was 2.1 nM.

B2: hNGAL lipocalin mutein SEQ ID NO: 1 (designed binder)
chain: QDSTSDLIPAPPLSKVPLQQNFQDNQFHGKWYVVGQAGNYILREDKDPGKMWATIYELKEDKSYNVTGVSFGPKKCNYTIWTFVPGSQPGEFTLGGIKSPPGGTSTLVRVVSTNYNQHAMVFFKHVLQNREFFEITLYGRTKELTSELKENFIRFSKSLGLPENHIVFPVPIDQCIDGSAWSHPQFEK
notes: Mutein of mature hNGAL
In the case of B2, the IC50 [2] is reported as 18.9 nM, the IC50 [3] is reported as 3.98 nM and the IC50 [4] is reported as 0.558 nM. For the same binder, the “IC50 mean, LEC proliferation assay” value [5] was 2.25 nM and the EC50 [6] was 3.7 nM.

B3: hNGAL lipocalin mutein SEQ ID NO: 6 (designed binder)
chain: QDSTSDLIPAPPLSKVPLQQNFQDNQFHGKWYVVGQAGNYILREDKDPEKMWATIYELKEDKSYDVTGVSFGPKKCNYRIWTFVPGSQPGEFTLGGIKSSPGQTSTLVRVVSTNYNQHAMVFFKHVLQNREFFEITLYGRTKELTSELKENFIRFSKSLGLPENHIVFPVPIDQCIDGSAWSHPQFEK
notes: Mutein of mature hNGAL
Binder B3 has an IC50 [2] of 3.46 nM, an IC50 [3] of 1.21 nM and an IC50 [4] of 0.0627 nM.

B4: hNGAL lipocalin mutein SEQ ID NO: 10 (designed binder)
chain: QDSTSDLIPAPPLSKVPLQQNFQDNQFHGKWYVVGQAGNYILREDKDPQKMWATIYELKEDKSYDVTGVSFGAKKCVYRIWTFVPGSQPGEFTLGGIKSPPGGTSTLVRVVSTNYNQHAMVFFKHVLQNREFFEITLYGRTKELTSELKENFIRFSKSLGLPENHIVFPVPIDQCIDGSAWSHPQFEK
notes: Mutein of mature hNGAL
B4 gave an IC50 [2] of 4.63 nM, an IC50 [3] of 1.05 nM and an IC50 [4] of 0.0794 nM.

B5: hNGAL lipocalin mutein SEQ ID NO: 13 (designed binder)
chain: QDSTSDLIPAPPLSKVPLQQNFQDNQFHGKWYVVGVAGNWYLREDKDPIKMTATIYELKEDKSYDVTQVGFEQEKCKYSIHTFVPGSQPGEFTLGDIKSWPGDTSPLVRVVSTNYNQHAMVFFKGMMQDREVFAITLYGRTKELTSELKENFIRFSKSLGLPENHIVFPVPIDQCIDGSAWSHPQFEK
notes: Mutein of mature hNGAL
B5 showed an IC50 [2] of 5.43 nM, an IC50 [3] of 7.34 nM and an IC50 [4] of 0.184 nM.

B6: hNGAL lipocalin mutein SEQ ID NO: 3 (designed binder)
chain: QDSTSDLIPAPPLSKVPLQQNFQDNQFHGKWYVVGVAGNWYLREDKDPIKMTATIYELKEDKSYNVTQVGFEQKKCKYSIHTFVPGSQPGEFTLGDIKSWPGDTSLLVRVVSTNYNQHAMVFFKGVMQNREVFAITLYGRTKELTSELKENFIRFSKSLGLPENHIVFPVPIDQCIDGSAWSHPQFEK
notes: Mutein of mature hNGAL
In the case of B6, the IC50 [2] is reported as 10.7 nM, the IC50 [3] is reported as 23.2 nM and the IC50 [4] is reported as 0.319 nM. For the same binder, the “IC50 mean, LEC proliferation assay” value [5] was 2.81 nM and the EC50 [6] was 2.8 nM.

B7: hNGAL lipocalin mutein SEQ ID NO: 12 (designed binder)
chain: QDSTSDLIPAPPLSKVPLQQNFQDNQFHGKWYVVGVAGNWYLREDKDPIKMTATIYELKEDKSYDVTQVGFEQEKCKYSIHTFVPGSQPGEFTLGNIKSWPGDTSPLVRVVSTNYDQHAMVFFKGVMQDREVFAITLYGRTKELTSELKENFIRFSKSLGLPENHIVFPVPIDQCIDGSAWSHPQFEK
notes: Mutein of mature hNGAL
With B7 the IC50 [2] was 5.29 nM, the IC50 [3] was 3.12 nM and the IC50 [4] was 0.131 nM.

B8: hNGAL lipocalin mutein SEQ ID NO: 14 (designed binder)
chain: QDSTSDLIPAPPLSKVPLQQNFQDNQFHGKWYVVGMAGNWDLREDKDPIKMTATIYELKEDKSYDVTQVAFEQKKCKYSIHTFVPGSQPGEFTLGQIKSWPGDTSPLVRVVSTNYNQHAMVFFKGVMQNREVFAITLYGRTKELTSELKENFIRFSKSLGLPENHIVFPVPIDQCIDGSAWSHPQFEK
notes: Mutein of mature hNGAL
B8 gave an IC50 [2] of 6.41 nM, an IC50 [3] of 2.32 nM and an IC50 [4] of 0.105 nM.

B9: benchmark antibody 1 (SEQ ID NOs: 17/18) (antibody, human IgG1, lambda, V domains shown)
VH: not shown
VL: QPGLTQPPSVSVAPGQTARITCGGNNIGSKSVHWYQQKPGQAPVLVVYDDSDRPSGIPERFSGSNSGNTATLTISRVEAGDEADYYCQVWDSSSDHYVFGTGTKVTVLG
B9 was tested, and the IC50 [4] was 0.0158 nM and the “IC50 mean, LEC proliferation assay” value [5] was 0.0668 nM.

B10: hNGAL lipocalin mutein SEQ ID NO: 2 (designed binder)
chain: QDSTSDLIPAPPLSKVPLQQNFQDNQFHGKWYVVGFAGNHRLREDKDPGKMHATIYELKEDKSYNVTDVTFAFKKCNYRIHTFVPGSQPGEFTLGNIKSWPGETSTLVRVVSTNYNQHAMVFFKTVMQNREWFWITLYGRTKELTSELKENFIRFSKSLGLPENHIVFPVPIDQCIDGSAWSHPQFEK
notes: Mutein of mature hNGAL
B10 was tested, and the IC50 [4] was 1.71 nM and the EC50 [6] was 3 nM.

B11: hNGAL lipocalin mutein SEQ ID NO: 4 (designed binder)
chain: QDSTSDLIPAPPLSKVPLQQNFQDNQFHGKWYVVGEAGNVELREDKDPVKMTATIYELKEDKSYNVTEVRFWLKKCKYNIHTFVPGSQPGEFTLGAIKSGPGMTSTLVRVVSTNYNQHAMVFFKTVMQNREWFWITLYGRTKELTSELKENFIRFSKSLGLPENHIVFPVPIDQCIDGSAWSHPQFEK
notes: Mutein of mature hNGAL
B11 showed an IC50 [4] of 0.412 nM.

B12: hNGAL lipocalin mutein SEQ ID NO: 5 (designed binder)
chain: QDSTSDLIPAPPLSKVPLQQNFQDNQFHGKWYVVGQAGNYWLREDKDPIKMSATIYELKEDKSYNVTIVYFTRKKCSYRIYTFVPGSQPGEFTLGPIKSYPGDTSTLVRVVSTNYNQHAMVFFKHVYQNREWFEITLYGRTKELTSELKENFIRFSKSLGLPENHIVFPVPIDQCIDGSAWSHPQFEK
notes: Mutein of mature hNGAL
For B12, the IC50 [4] was 0.861 nM and the EC50 [6] was 3.5 nM.
